The target in assay [1] is T1, GFP-His6::sExu531 (Drosophila melanogaster).
T1 chain: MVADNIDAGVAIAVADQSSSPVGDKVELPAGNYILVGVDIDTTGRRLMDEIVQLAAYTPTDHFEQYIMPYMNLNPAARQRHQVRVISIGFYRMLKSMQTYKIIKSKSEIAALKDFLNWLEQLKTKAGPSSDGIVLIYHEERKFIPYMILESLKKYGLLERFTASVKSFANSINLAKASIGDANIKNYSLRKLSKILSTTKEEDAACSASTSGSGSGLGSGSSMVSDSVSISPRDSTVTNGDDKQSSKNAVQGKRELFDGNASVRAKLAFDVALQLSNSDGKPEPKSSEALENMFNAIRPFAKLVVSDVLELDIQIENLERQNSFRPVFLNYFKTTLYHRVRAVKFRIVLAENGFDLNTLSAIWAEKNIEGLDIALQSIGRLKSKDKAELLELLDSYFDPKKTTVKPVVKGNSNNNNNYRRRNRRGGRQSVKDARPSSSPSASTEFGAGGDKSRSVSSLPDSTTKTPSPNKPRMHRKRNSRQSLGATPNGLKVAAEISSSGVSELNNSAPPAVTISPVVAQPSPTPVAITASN
Put plainly: SEC. The following applies: remark: other sources report otherwise.

Assay [2] has as its target T1, GFP-His6::sExu531 (Drosophila …). Put plainly: SEC. As to conditions: remark: other sources report otherwise.

B1: GFP-His6::sExu531 (natural protein)
chain: T1 chain
For the molecule B1, the stoichiometry N was greater than 3 in assay [1] and 3 in assay [2].

Source of the values: paper doi:10.1101/2022.12.06.519343.
